Blank lines part the entries; values can stand above or below the substance they belong to.
How the values were obtained:
[1] = target: T1, sNgR310 (Rattus norvegicus, UniProt Q99M75, A303T/C287S/C43R/E284G/T53A); assay: Aβ42 effect on Biotin-Aβ40 binding to immobilized sNgR310; details: dose-dependent, streptavidin HRP
T1 sequence (Q99M75 27-310 C43R/T53A/E284G/C287S/A303T): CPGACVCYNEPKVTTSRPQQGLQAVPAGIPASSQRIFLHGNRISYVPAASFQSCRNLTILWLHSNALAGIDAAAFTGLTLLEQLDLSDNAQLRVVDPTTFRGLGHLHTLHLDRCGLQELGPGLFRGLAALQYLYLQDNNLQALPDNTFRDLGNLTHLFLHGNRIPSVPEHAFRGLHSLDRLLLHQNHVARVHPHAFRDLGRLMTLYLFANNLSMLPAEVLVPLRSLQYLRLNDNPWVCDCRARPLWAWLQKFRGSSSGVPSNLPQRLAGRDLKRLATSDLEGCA
Description: We examined whether the interaction between NgR and Aβ peptide has a role in aggregate formation. sNgR310 was immobilized on microtiter plates and Biotin-Aβ40 was applied along with Aβ42 peptide.

[2] = target: T2, human NgR1 (Homo sapiens, UniProt Q9BZR6); assay: Aβ42 effect on Biotin-Aβ40 binding to SKNMC cells expressing human NGR1; details: SKNMC cells expressing human NGR1, dose-dependent
T2 construct: expressed in transfected cells; host or cells: SKNMC cells
T2 sequence (Q9BZR6 27-447): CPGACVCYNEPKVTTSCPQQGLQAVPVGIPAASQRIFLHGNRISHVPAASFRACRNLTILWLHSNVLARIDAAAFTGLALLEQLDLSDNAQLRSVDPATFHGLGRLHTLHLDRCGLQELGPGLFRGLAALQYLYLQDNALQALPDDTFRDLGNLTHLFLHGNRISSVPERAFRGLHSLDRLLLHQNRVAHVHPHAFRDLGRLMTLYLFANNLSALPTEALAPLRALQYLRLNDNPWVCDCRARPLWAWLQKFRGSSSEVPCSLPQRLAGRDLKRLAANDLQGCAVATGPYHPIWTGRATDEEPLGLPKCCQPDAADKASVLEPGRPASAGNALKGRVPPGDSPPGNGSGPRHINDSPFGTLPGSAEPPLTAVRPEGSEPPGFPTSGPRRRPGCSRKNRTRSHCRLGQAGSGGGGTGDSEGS

[3] = target: T2, human NgR1; assay: Fluo-Aβ42 binding to SKNMC cells expressing human NgR-1; details: 2 h at 4° C.
[4] = target: T3, sNgR310-Fc (Rattus norvegicus, UniProt Q99M75, A303T/C287S/C43R/E284G/T53A); assay: Competition of free Aβ with NgR ligands on sNgR310-Fc coated wells; format: binding; details: competition assay
T3 construct: Fc portion of IgG (rat)
T3 sequence (Q99M75 27-310 C43R/T53A/E284G/C287S/A303T): T1 sequence (Q99M75 27-310 C43R/T53A/E284G/C287S/A303T)
Experimental: We analyzed whether Aβ (1-28) binding competed for NgR binding with other known ligands for NgR by allowing 250 nM soluble AP-Aβ(1-28) or AP-Nogo (1-33) to bind to wells coated with purified sNgR310-Fc in the presence of various concentrations of competing free Aβ. […] We observed that the Aβ peptides bind to both sNgR310-Fc and sNgR344-Fc. […] However, Aβ(1-28) displaced Aβ-AP binding but not AP-Nogo-66 (1-33) or AP-OMgp binding in competition assays. The Aβ peptide may begin to displace AP-MAG very slightly at high concentrations in our experiments. Thus, the Aβ binding site on NgR appears largely distinct from that for the myelin ligands NogoA, OMgp and MAG. Consistent with this, the presence of Aβ had little effect on myelin or Nogo-66 inhibition of neurite outgrowth.

[5] = target: T4, NgR (Homo sapiens, UniProt Q9BZR6); assay: AP-Aβ(1-28) fusion protein binding to NgR-expressing COS cells; details: not to vector-transfected COS cells
T4 construct: expressed in transfected cells; host or cells: COS cells
T4 sequence (Q9BZR6 27-473): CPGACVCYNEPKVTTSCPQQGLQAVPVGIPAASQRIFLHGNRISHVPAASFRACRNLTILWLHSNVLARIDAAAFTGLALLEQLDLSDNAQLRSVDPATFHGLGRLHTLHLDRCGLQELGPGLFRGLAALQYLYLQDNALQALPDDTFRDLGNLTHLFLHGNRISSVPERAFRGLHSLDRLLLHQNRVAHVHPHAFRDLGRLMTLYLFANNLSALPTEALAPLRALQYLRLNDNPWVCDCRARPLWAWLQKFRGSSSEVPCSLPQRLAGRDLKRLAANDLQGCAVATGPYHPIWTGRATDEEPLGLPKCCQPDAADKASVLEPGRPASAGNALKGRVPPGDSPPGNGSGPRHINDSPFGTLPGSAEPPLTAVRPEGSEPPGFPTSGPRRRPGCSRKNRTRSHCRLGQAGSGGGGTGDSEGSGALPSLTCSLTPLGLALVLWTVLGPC
Description: We then investigated whether the Aβ region of APP is involved in its interaction with NgR—including whether the fibrillogenic Aβ42-3 peptide binds NgR. We created two fusion protein constructs containing alkaline phosphatase (AP) and the hydrophilic region of Aβ (amino acids 1-28) by fusing the coding sequence in frame with the signal sequence-6×His-placental alkaline phosphatase (AP) sequence of the vector pAP-6 (Nakamura et al., Neuron 2: 1093-1100, 1988). The AP-Aβ and Aβ-AP proteins both bound to NgR-expressing COS cells but not to vector-transfected COS cells. This binding was saturable with an apparent Kd of 60 nM. The interaction also was detected using purified Biotin-Aβ(1-40) in an ELISA-type assay with immobilized NgR.

[6] = target: T5, NgR2 (Homo sapiens, UniProt Q86UN3); assay: Aβ-AP binding specificity, NgR2
T5 sequence (Q86UN3 47-390): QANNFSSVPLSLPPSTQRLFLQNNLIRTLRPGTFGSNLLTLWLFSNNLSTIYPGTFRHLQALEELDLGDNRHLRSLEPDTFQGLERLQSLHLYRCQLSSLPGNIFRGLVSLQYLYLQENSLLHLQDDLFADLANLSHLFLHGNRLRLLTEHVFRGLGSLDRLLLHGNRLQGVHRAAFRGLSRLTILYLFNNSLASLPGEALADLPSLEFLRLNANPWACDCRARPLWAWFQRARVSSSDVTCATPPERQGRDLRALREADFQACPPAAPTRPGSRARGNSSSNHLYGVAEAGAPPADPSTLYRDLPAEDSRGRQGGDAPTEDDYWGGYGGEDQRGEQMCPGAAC
Description: (§1) The specificity and selectivity of the Aβ(1-28) interaction with NgR was probed in several ways. The interaction was specific for NgR1 because neither NgR2 or NgR3—which share sequence similarity with NgR—bound Aβ-AP. Further, we observed species specificity: human NgR binds human AB to a greater extent than mouse NgR binds human AB or human NgR binds mouse AB or mouse NgR binds mouse Aβ.

[7] = target: T6, NgR3 (Homo sapiens, UniProt Q86UN2); assay: Aβ-AP binding specificity, NgR3
T6 sequence (Q86UN2 25-420): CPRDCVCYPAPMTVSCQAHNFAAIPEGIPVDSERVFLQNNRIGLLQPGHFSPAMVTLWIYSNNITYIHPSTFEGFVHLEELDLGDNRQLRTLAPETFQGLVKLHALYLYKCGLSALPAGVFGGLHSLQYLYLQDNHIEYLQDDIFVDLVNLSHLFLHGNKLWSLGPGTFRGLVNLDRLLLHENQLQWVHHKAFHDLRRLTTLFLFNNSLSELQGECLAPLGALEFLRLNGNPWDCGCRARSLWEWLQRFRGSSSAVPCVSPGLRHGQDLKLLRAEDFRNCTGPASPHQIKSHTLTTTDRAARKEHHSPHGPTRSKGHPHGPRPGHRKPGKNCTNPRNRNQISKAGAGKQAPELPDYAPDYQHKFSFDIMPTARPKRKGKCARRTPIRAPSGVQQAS
Description: as §1

effect on binding of Biotin-Aβ40 peptide to immobilized sNgR310 [1]: enhanced | effect on binding of Biotin-Aβ40 peptide to cells [2]: enhanced
Substance: Aβ42 peptide: fibrillogenic Aβ42 peptide

binding to SKNMC cells expressing human NgR-1 [3]: binds
Substance: Fluo-Aβ42: labelled fibrillogenic Aβ42 peptide

displacement of AP-Nogo-66 (1-33) binding [4]: not | displacement of AP-OMgp binding [4]: not | displacement of Aβ-AP binding [4]: displaced
Substance: Aβ(1-28): free Aβ peptide, amino acids 1-28, used as competitor

binding to NgR-expressing COS cells [5]: bound | binding to NgR2 [6]: neither | binding to NgR3 [7]: neither
Substance: Aβ-AP: fusion protein of the hydrophilic region of Aβ (amino acids 1-28) and alkaline phosphatase (AP)

Source: patent US20070065429A1, “Nogo-receptor antagonists for the treatment of conditions involving amyloid plaques” (Biogen Idec MA Inc., priority 2003, published 2007)
